Assay results: article PMC11670933

Target: truncated human NOTCH2^ΔERA-TurboID (human)
Assay: proximity labelling; TurboID fusions stably expressed in HT-29; 500 uM biotin for one hour; streptavidin beads; label-free quantitative mass spectrometry (DIA, Q-Exactive HF X), TurboID alone as control

Log2FC NICD2RA-vs-NICD2 (log2 fold change): -2.03
percent of the NOTCH2 recovered (against NICD2-TurboID): 13%
Substance: endogenous human NOTCH2 (NICD2) (natural protein)
